± gives the half width of the 95% confidence interval.
Assay: folding stability dG unfold from chymotrypsin proteolysis; higher = more stable
Procedure, shortened: (§1)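 Digests were run with trypsin and chymotrypsin at 11 concentrations in threefold dilutions, plus a no-protease condition, on designed mini-proteins in a PA-tagged cDNA display construct. The mini-proteins were under 80 residues, had no cysteine, and were kept only when AlphaFold2 dimer inter-PAE was above 15. After sequencing, Bayesian fitting of the counts gave K50, from which unfolding free energy was derived against a sequence-predicted unfolded-state K50 and a shared folded-state K50, per protease or combined.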

| Sequence | folding stability dG unfold [kcal/mol] |
| --- | --- |
| SAGGSAGGSMPLKLVELKPLEESTGENGVPTVRVELVLERPGERITVELEVSPEEIEALIKKLLSAGGSAGG [r6_379_JUSTAS] | 1.07 ± 0.2 |
| SAGGSAGGSAGGRKRYRFKPGQRLEPRLVFRLKLRLELERDEDGNLSLKLELEIEEVRLLSAGGSAGGSAGG [r7_572_TrROS_Hall] | 4.41 ± 0.098 |
| SAGGSAGGSAGGSLEIEITFELPDDVRLRIRARIEPLPDGSLKVEVEIELIPVKPDEDLSAGGSAGGSAGGS [r10_241_TrMRF] | 2.9 ± 0.089 |
| SAELKISKIDVSSLPDGSKKVTVNFSAPNFKVTITLDKSGNVSVEVSPEARKLPPEFFNLILNLAKELGSAG [r14_555_TrMRF] | 4.14 ± 0.1 |
| SSMSIEIKEVEEDPVGSEAKPRVVREKVTLEGTEVELTVTVTEAPSGETTVTTTLTFPGSGKTFSFTFDTSA [r9_241_JUSTAS] | 3.05 ± 0.044 |
| SAGGSMQSVTSYDPNGVTYTTEFLPDEDVVTYTKTTDGTVTTTKVERLDEDGVPVPLSTSTTTLGGSAGGSA [r2_60_JUSTAS] | -0.217 ± 0.29 |
| SAGGSAGGSAEEEEMPVEELVRRKAREVEEAFPGLRGERRITVTVTLPEGETWTAELVLPLSAGGSAGGSAG [r3_64_TrMRF] | 0.502 ± 0.18 |
| SAGGSGKKVKIKINIVVVFPPGDPDLAKEIAKWFARTIARELQAQGFEDIKDIEIRVHVIPPNQPGFSAGGS [r16_289_TrROS] | 3.604 ± 0.035 |
| SAGGSAGGMLSPEVLEDPEKVIEFLKKMIPGLKIVVPPDAPPEVVEAAAKLAEETGIPVEIVVGSAGGSAGG [r6_129_TrMRF] | -0.539 ± 0.48 |
| SAGGMVQISVTEIDPETGLITIEMKFPKGVDDPAKIAAAKAEAEAFAQELEKKLGLPVKVTFTPLPESAGGS [r16_304_JUSTAS] | 1.9 ± 0.039 |
| SAGGSAGGSAGSMEPVKTEELESGEVRTVSLLPDGTIKEELIKIEGEGETVETKVVPLEESAGGSAGGSAGG [r11_699_JUSTAS] | 1.68 ± 0.1 |
| SAGGSGPMTRSITITVTPEIVRDEKGNVTATKYTVTITRSPEVSPEEVEALAAELNAAGIPTTVTPSAGGSA [r2_456_JUSTAS] | 1.65 ± 0.099 |
| SAGPSLEVEVERLPGPYVRITARYSRDVPVEVLVEELRAAAPVEVRVEEDPERDFVTVVAVLPLAPDAGSAG [r5_742_TrMRF] | 1.46 ± 0.069 |
| SAGGMKLEIYLRFKTEEEAKKAVEELIRKLLEELGLEVEVEVVYDEETKEVYVKVTVTFPELPEEELSAGGS [r8_17_TrROS_Hall] | 4.7 ± 0.29 |
| SAGSITITIETLPDGTIRITIPYTSEEEAKKVAEEVAKEIAEKLGEEVIKFEVTPEDDDTLILTIPIKKSAG [r5_772_JUSTAS] | 1.81 ± 0.092 |
| SAYYIIIKIENPNDGKPFIIMIPGNNIHIFDPDNGKPVEIEVDGDKIEIKFNNRPVTVKPLEVIPPEAISAG [r14_208_TrROS] | 2.42 ± 0.04 |
| SAGGSAGGSAMKPVPFEVLSVSYPVLPNGTRIRLVEIKFPETGEVKWIELSPDDPVIKALLSAGGSAGGSAG [r3_57_JUSTAS] | 1.899 ± 0.011 |
| SAGGSAGGSAGSMLLSLSIASVETTETTEIDPETGEKRKVTTTTITIPGTGQTITLTETVESAGGSAGGSAG [r3_424_JUSTAS] | 0.532 ± 0.07 |
| SAGGMITLPIPLEEAEKLLKELTPDGGDVTTTPLGSLDGEVLYEVTITPPETGNTVTVKVLVPKGRGSAGGS [r16_486_JUSTAS] | 0.178 ± 0.11 |
| SAGGSAGGSAGMTVEVVKSVVPTKTNETVIVTTVTEVEPPTGKVTTLETKTVSTANPELLSAGGSAGGSAGG [r11_777_JUSTAS] | -0.395 ± 0.11 |
| PKIEITRVEYHPNEGYYRVTVKLPGKDVSIYMGPENGMMQVYFPGNGREREFPFDSMDDAVDRAKELLKERS [r1_177_TrROS] | 1.55 ± 0.11 |

Assay: folding stability dG unfold from trypsin proteolysis; higher = more stable
Procedure, shortened: as §1

| Sequence | folding stability dG unfold [kcal/mol] |
| --- | --- |
| SAGGSAGGSAMPGKTYRVRIRLYNEETGELVEERELEVETLDELKEAAEKEGWKIVEIEVESAGGSAGGSAG [r3_423_TrROS_Hall] | 3.14 ± 0.14 |
| SAKIEVYELPDGSKEIVFEFGDKVIRVTFFPDYPLAVVEVFDPPKDEVVKTIPVRADDLEDTIKKILEESAG [r14_583_TrMRF] | 1.8 ± 0.096 |
| SAGGSAGGMKEITITNENGETLRIKVFNKETGEEKEIEFPAGMSLEDILKKLKEEEGLEVEIEPSAGGSAGG [r6_202_TrROS_Hall] | 2.27 ± 0.14 |
| SAGGSAGGSKITIKLIKNGEIVEEKEIEDKKTGKKIKIKAIKKDGKLYLVIEVDGKKYVIPLPSAGGSAGGS [r12_994_TrROS_Hall] | 2.02 ± 0.23 |
| SAGGSAGGSAKIMIPVDTPEEVKDIAEEFASNGNKEVEPHEDGWVSIEFPNGVPIEIWLPKDSAGGSAGGSA [r18_126_TrROS] | -0.558 ± 0.28 |
| SAGGMELVIAVNSKEEAKKAAEEIKKKTPKGFKLEIEIEEYDLKENVEPEDKDIENIKVYLIKVKLESAGGS [r16_795_TrMRF] | 1.4 ± 0.13 |
| SAGGSAGGSAGGIIIPPGAKIVSIEKEGDFVKIKVYIPGSKKIETFKFPKGVPIIFEPEASAGGSAGGSAGG [r11_774_TrMRF] | 3.51 ± 0.28 |
| SMGSTTVTVELEFEVEDPSVFPPDTTVDVPEEVIEKLRAEGYTVTEITTTVEPTPSGRVRVRVTMTVRVDSA [r9_465_JUSTAS] | 2.95 ± 0.05 |
| SAGGSAGGSAGGPYVVKVKLKDGSVVELPVEEDHIPTIEDLVKAGIPPELIESVEIEPESAGGSAGGSAGGS [r10_565_TrMRF] | 2.57 ± 0.12 |
| SAGGSAGGKPDLLLEARTDLFGEEREAEVFYDPSPPVLTITLPDGTVITLPEEEVEIEKETPLISAGGSAGG [r6_185_JUSTAS] | -0.297 ± 0.12 |
| SAGGSAGGSMTPVPGGYVITIETPAPGGVPLATLYVPSREEAEAAIAEIPAEDLTAVTVEPVLLSAGGSAGG [r6_705_JUSTAS] | 0.714 ± 0.034 |
| SAGGSAGGSTITITTVIEKDGELYVIEAKIEVTEVYYDKKTKKKVKVKVKIEIKIEKVPLEDLSAGGSAGGS [r12_809_TrROS_Hall] | 2.96 ± 0.56 |
| SAGGSAGGSAGGMTLEELKKAIENAKPGETIEIEINGETYRITIIEKDGKLIIKIEKLPPSAGGSAGGSAGG [r7_448_TrROS_Hall] | 4.36 ± 0.36 |
| SAGKTITVTSTHPDGRTATVTYTTLPDGSFKITSFTWEPWPDGTVTAKITTPDGTVITVNSIDDILKALSAG [r5_618_TrMRF] | 2.4 ± 0.1 |
| SAGGSAGGSDLVRVEMLITKIVPGTGDPVETVKIEVEVPRSEIPKVIEEIPEGYEVTEIKFIPESAGGSAGG [r6_777_JUSTAS] | 2.05 ± 0.079 |
| SAGGSAGGSAGGLEIEFWFFFPDEGYMIEVEWERDPDGPIEPTKITEIHPMPDGQPNPGFSAGGSAGGSAGG [r11_750_TrROS] | 1.81 ± 0.059 |
| SAGGSAGGSAGGGRVELELTFIREDGYAVKVRIEVDEDGNLRIEVEVVKLPPAASPEELSAGGSAGGSAGGS [r10_878_TrROS_Hall] | 3.23 ± 0.14 |
| SAGGSAGGSLEKIKEALKKAGYPPENVVIEVKTLPNGEIVITVKYNGKEIPKEIVEEAIKKLKSAGGSAGGS [r12_175_JUSTAS] | 2.69 ± 0.081 |
| SAGGSAGGSAGMYVITIKLPSGEVIKIKTDPKNPEEAIKKLEPQYPPAEFEVKEVPENEISAGGSAGGSAGG [r11_103_JUSTAS] | 0.633 ± 0.041 |
| SAGEKIKEALKKAGVEKVEIVEIKRLKNGKVLIVIRLHPDMSEEQRRRLLKALADALREEFPDVKIVELSAG [r5_101_TrROS_Hall] | 4.79 ± 0.13 |
| SAGGSIKIDEIEPDPPGDRVKVKMDIPVPMYDPNGKPKEPMPIKITAEARVDPENGELAINMDIEMSAGGSA [r2_220_TrROS] | 2.73 ± 0.41 |

| Sequence | folding stability dG unfold [kcal/mol] |
| --- | --- |
| SAGGSAGGSMPLKLVELKPLEESTGENGVPTVRVELVLERPGERITVELEVSPEEIEALIKKLLSAGGSAGG [r6_379_JUSTAS] | 2.03 ± 0.074 |
| SAGGSAGGSAGGRKRYRFKPGQRLEPRLVFRLKLRLELERDEDGNLSLKLELEIEEVRLLSAGGSAGGSAGG [r7_572_TrROS_Hall] | 3.35 ± 0.13 |
| SAGGSAGGSAGGSLEIEITFELPDDVRLRIRARIEPLPDGSLKVEVEIELIPVKPDEDLSAGGSAGGSAGGS [r10_241_TrMRF] | 3.17 ± 0.15 |
| SAELKISKIDVSSLPDGSKKVTVNFSAPNFKVTITLDKSGNVSVEVSPEARKLPPEFFNLILNLAKELGSAG [r14_555_TrMRF] | 3.64 ± 0.15 |
| SSMSIEIKEVEEDPVGSEAKPRVVREKVTLEGTEVELTVTVTEAPSGETTVTTTLTFPGSGKTFSFTFDTSA [r9_241_JUSTAS] | 1.9 ± 0.052 |
| SAGGSMQSVTSYDPNGVTYTTEFLPDEDVVTYTKTTDGTVTTTKVERLDEDGVPVPLSTSTTTLGGSAGGSA [r2_60_JUSTAS] | 0.208 ± 0.085 |
| SAGGSAGGSAEEEEMPVEELVRRKAREVEEAFPGLRGERRITVTVTLPEGETWTAELVLPLSAGGSAGGSAG [r3_64_TrMRF] | 0.19 ± 0.19 |
| SAGGSGKKVKIKINIVVVFPPGDPDLAKEIAKWFARTIARELQAQGFEDIKDIEIRVHVIPPNQPGFSAGGS [r16_289_TrROS] | 3.11 ± 0.094 |
| SAGGSAGGMLSPEVLEDPEKVIEFLKKMIPGLKIVVPPDAPPEVVEAAAKLAEETGIPVEIVVGSAGGSAGG [r6_129_TrMRF] | 1.06 ± 0.026 |
| SAGGMVQISVTEIDPETGLITIEMKFPKGVDDPAKIAAAKAEAEAFAQELEKKLGLPVKVTFTPLPESAGGS [r16_304_JUSTAS] | 1.95 ± 0.037 |
| SAGGSAGGSAGSMEPVKTEELESGEVRTVSLLPDGTIKEELIKIEGEGETVETKVVPLEESAGGSAGGSAGG [r11_699_JUSTAS] | 0.745 ± 0.065 |
| SAGGSGPMTRSITITVTPEIVRDEKGNVTATKYTVTITRSPEVSPEEVEALAAELNAAGIPTTVTPSAGGSA [r2_456_JUSTAS] | 1.23 ± 0.026 |
| SAGPSLEVEVERLPGPYVRITARYSRDVPVEVLVEELRAAAPVEVRVEEDPERDFVTVVAVLPLAPDAGSAG [r5_742_TrMRF] | 1.28 ± 0.031 |
| SAGGMKLEIYLRFKTEEEAKKAVEELIRKLLEELGLEVEVEVVYDEETKEVYVKVTVTFPELPEEELSAGGS [r8_17_TrROS_Hall] | 3.67 ± 0.19 |
| SAGSITITIETLPDGTIRITIPYTSEEEAKKVAEEVAKEIAEKLGEEVIKFEVTPEDDDTLILTIPIKKSAG [r5_772_JUSTAS] | 1.15 ± 0.15 |
| SAYYIIIKIENPNDGKPFIIMIPGNNIHIFDPDNGKPVEIEVDGDKIEIKFNNRPVTVKPLEVIPPEAISAG [r14_208_TrROS] | 1.54 ± 0.11 |
| SAGGSAGGSAMKPVPFEVLSVSYPVLPNGTRIRLVEIKFPETGEVKWIELSPDDPVIKALLSAGGSAGGSAG [r3_57_JUSTAS] | 2.27 ± 0.029 |
| SAGGSAGGSAGSMLLSLSIASVETTETTEIDPETGEKRKVTTTTITIPGTGQTITLTETVESAGGSAGGSAG [r3_424_JUSTAS] | 1.83 ± 0.058 |
| SAGGMITLPIPLEEAEKLLKELTPDGGDVTTTPLGSLDGEVLYEVTITPPETGNTVTVKVLVPKGRGSAGGS [r16_486_JUSTAS] | -0.627 ± 0.32 |
| SAGGSAGGSAGMTVEVVKSVVPTKTNETVIVTTVTEVEPPTGKVTTLETKTVSTANPELLSAGGSAGGSAGG [r11_777_JUSTAS] | -0.755 ± 0.12 |
| PKIEITRVEYHPNEGYYRVTVKLPGKDVSIYMGPENGMMQVYFPGNGREREFPFDSMDDAVDRAKELLKERS [r1_177_TrROS] | 1.33 ± 0.12 |

Source: the supplement of paper PMC12764529
